Consider two variants from IntAct's records for PubMed 10675337.

The chains are these.
B1: GA-binding protein subunit beta-1 (Homo sapiens), Q06547-2 (parent)
chain: MSLVDLGKKLLEAARAGQDDEVRILMANGAPFTTDWLGTSPLHLAAQYGHYSTTEVLLRAGVSRDARTKVDRTPLHMAASEGHASIVEVLLKHGADVNAKDMLKMTALHWATEHNHQEVVELLIKYGADVHTQSKFCKTAFDISIDNGNEDLAEILQIAMQNQINTNPESPDTVTIHAATPQFIIGPGGVVNLTDETGVSAVQFGNSSTSVLATLAALAEASAPLSNSSETPVVATEEVVTAESVDGAIQQVVSSGGQQVITIVTDGIQLGNLHSIPTSGIGQPIIVTMPDGQQVLTVPATDIAEETVISEEPPAKRQCIEIIENRVESAEIEEREALQKQLDEANREAQKYRQQLLKKEQEAEAYRQKLEAMTRLQTNKEAV

Variants of B1 are the subject of this assay. The conditions noted are these: with hcfc1_human HCFC1, P51610.
hcfc1_human HCFC1, P51610, sequence (P51610 whole entry): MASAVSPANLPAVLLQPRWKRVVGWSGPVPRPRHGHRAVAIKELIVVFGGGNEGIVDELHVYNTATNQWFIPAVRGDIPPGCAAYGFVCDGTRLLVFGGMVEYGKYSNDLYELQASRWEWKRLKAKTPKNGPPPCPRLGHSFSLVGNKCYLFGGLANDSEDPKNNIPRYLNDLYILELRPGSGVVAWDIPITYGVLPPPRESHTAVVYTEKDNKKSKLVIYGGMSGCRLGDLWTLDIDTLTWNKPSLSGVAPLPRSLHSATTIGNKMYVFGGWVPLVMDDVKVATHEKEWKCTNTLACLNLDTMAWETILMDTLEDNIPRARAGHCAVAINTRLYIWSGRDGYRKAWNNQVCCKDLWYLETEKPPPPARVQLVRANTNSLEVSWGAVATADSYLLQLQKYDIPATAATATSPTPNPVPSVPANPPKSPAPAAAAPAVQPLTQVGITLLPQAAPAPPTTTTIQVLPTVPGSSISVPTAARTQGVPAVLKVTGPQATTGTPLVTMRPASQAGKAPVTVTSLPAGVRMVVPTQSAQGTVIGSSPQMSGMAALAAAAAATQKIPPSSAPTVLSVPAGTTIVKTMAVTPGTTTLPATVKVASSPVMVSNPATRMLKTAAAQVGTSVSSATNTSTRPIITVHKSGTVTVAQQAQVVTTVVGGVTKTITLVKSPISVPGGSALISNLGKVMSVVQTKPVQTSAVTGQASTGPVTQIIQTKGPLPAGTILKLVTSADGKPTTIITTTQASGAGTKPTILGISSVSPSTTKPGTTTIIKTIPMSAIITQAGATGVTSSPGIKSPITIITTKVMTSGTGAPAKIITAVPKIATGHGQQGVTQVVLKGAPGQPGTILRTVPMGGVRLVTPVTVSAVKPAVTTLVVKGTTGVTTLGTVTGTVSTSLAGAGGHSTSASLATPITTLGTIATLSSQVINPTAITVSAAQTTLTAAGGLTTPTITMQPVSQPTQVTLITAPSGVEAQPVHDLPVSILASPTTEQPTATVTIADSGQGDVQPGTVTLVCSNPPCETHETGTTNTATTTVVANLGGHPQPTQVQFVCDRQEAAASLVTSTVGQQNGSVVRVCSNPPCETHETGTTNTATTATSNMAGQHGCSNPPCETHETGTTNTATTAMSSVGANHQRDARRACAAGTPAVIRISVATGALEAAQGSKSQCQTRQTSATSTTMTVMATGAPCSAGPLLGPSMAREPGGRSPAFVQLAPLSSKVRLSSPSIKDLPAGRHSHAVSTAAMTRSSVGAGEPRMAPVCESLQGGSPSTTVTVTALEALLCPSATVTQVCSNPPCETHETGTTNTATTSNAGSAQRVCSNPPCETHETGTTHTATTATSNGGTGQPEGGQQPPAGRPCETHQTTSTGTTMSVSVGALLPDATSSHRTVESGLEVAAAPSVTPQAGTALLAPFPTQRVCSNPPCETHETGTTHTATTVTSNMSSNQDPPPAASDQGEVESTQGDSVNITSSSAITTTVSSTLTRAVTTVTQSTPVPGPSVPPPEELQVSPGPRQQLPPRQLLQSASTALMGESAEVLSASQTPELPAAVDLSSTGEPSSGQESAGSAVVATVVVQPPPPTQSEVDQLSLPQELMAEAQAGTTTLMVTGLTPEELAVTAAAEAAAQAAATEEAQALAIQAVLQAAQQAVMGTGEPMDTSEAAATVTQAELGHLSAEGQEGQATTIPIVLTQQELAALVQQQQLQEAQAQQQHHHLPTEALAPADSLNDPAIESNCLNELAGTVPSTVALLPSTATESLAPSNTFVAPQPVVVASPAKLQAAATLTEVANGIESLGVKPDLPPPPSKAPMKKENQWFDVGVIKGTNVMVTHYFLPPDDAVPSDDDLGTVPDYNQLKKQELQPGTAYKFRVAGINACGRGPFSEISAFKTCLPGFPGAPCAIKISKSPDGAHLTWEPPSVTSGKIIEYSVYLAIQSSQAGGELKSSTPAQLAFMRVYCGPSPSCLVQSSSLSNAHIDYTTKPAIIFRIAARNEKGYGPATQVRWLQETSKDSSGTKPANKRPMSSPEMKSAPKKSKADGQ
As to V252A;V253A, the “effect of a mutation on the interaction” value is “decreasing interaction”.
As to V295A;V298A, the “effect of a mutation on the interaction” value is on record as “decreasing interaction”.
